{"source": "patent US20210388087A1", "about": "(Chugai, published 2021)"}
{"target": "T1, CD3 epsilon homodimer protein (UniProt P07766 23-126)", "T1 construct": "immobilized on Sensor chip CM4 by amine coupling; also called CD3 (CD3 epsilon)", "T1 sequence (P07766 23-126)": "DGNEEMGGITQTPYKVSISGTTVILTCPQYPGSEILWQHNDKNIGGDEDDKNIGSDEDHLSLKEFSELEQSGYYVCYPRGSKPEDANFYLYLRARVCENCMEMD", "test": "SPR (Biacore T200), CD3 epsilon homodimer on CM4 chip, one-arm antibody as analyte, 25 C;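 also: homodimer attached to the sensor surface via amine coupling, HBS-EP+ used as running buffer during binding runs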"}
{"binder": "CE115HA000 A56G one-arm antibody (antibody, human IgG1, kappa, L234A L235A, N297A, name in Kabat numbering) heavy: QVQLVESGGGVVQPGRSLRLSCAASGFTFSNAWMHWVRQAPGKGLEWVAQIKAKSNNYGTYYAESVKGRFTISRDDSKNSLYLQMNSLKTEDTAVYYCRYVHYGAYYGVDAWGQGTTVTVSSASTKGPSVFPLAPSSKSTSGGTAALGCLVKDYFPEPVTVSWNSGALTSGVHTFPAVLQSSGLYSLSSVVTVPSSSLGTQTYICNVNHKPSNTKVDKKVEPKSCDKTHTCPPCPAPEAAGGPSVFLFPPKPKDTLMISRTPEVTCVVVDVSHEDPEVKFNWYVDGVEVHNAKTKPREEQYASTYRVVSVLTVLHQDWLNGKEYKCKVSNKALPAPIEKTISKAKGQPREPQVYTLPPSRCELTKNQVSLSCAVKGFYPSDIAVEWESNGQPENNYKTTPPVLDSDGSFFLVSKLTVDKSRWQQGNVFSCSVMHEALHNHYTQKSLSLSPDYKDDDDK EPKSSDKTHTCPPCPAPELLGGPSVFLFPPKPKDTLMISRTPEVTCVVVDVSHEDPEVKFNWYVDGVEVHNAKTKPREEQYNSTYRVVSVLTVLHQDWLNGKEYKCKVSNKALPAPIEKTISKAKGQPREPQVCTLPPSRDELTKNQVSLWCLVKGFYPSDIAVEWESNGQPENNYKTTPPVLDSDGSFFLYSKLTVDKSRWQQGNVFSCSVMHEALHNRYTQKSLSLSP light: DIVMTQSPLSLPVTPGEPASISCRSSQSLVHSNRNTYLHWYQQKPGQAPRLLIYKVSNRFSGVPDRFSGSGSGTDFTLKISRVEAEDVGVYYCGQGTQVPYTFGQGTKLEIKRTVAAPSVFIFPPSDEQLKSGTASVVCLLNNFYPREAKVQWKVDNALQSGNSQESVTEQDSKDSTYSLSSTLTLSKADYEKHKVYACEVTHQGLSSPVTKSFNRGEC", "ratio of amounts bound (altered form / CE115HA000)": 0.61}
{"binder": "CE115HA000 A56L one-arm antibody (antibody, human IgG1, kappa, L234A L235A, N297A, name in Kabat numbering) heavy: QVQLVESGGGVVQPGRSLRLSCAASGFTFSNAWMHWVRQAPGKGLEWVAQIKAKSNNYLTYYAESVKGRFTISRDDSKNSLYLQMNSLKTEDTAVYYCRYVHYGAYYGVDAWGQGTTVTVSSASTKGPSVFPLAPSSKSTSGGTAALGCLVKDYFPEPVTVSWNSGALTSGVHTFPAVLQSSGLYSLSSVVTVPSSSLGTQTYICNVNHKPSNTKVDKKVEPKSCDKTHTCPPCPAPEAAGGPSVFLFPPKPKDTLMISRTPEVTCVVVDVSHEDPEVKFNWYVDGVEVHNAKTKPREEQYASTYRVVSVLTVLHQDWLNGKEYKCKVSNKALPAPIEKTISKAKGQPREPQVYTLPPSRCELTKNQVSLSCAVKGFYPSDIAVEWESNGQPENNYKTTPPVLDSDGSFFLVSKLTVDKSRWQQGNVFSCSVMHEALHNHYTQKSLSLSPDYKDDDDK EPKSSDKTHTCPPCPAPELLGGPSVFLFPPKPKDTLMISRTPEVTCVVVDVSHEDPEVKFNWYVDGVEVHNAKTKPREEQYNSTYRVVSVLTVLHQDWLNGKEYKCKVSNKALPAPIEKTISKAKGQPREPQVCTLPPSRDELTKNQVSLWCLVKGFYPSDIAVEWESNGQPENNYKTTPPVLDSDGSFFLYSKLTVDKSRWQQGNVFSCSVMHEALHNRYTQKSLSLSP light: DIVMTQSPLSLPVTPGEPASISCRSSQSLVHSNRNTYLHWYQQKPGQAPRLLIYKVSNRFSGVPDRFSGSGSGTDFTLKISRVEAEDVGVYYCGQGTQVPYTFGQGTKLEIKRTVAAPSVFIFPPSDEQLKSGTASVVCLLNNFYPREAKVQWKVDNALQSGNSQESVTEQDSKDSTYSLSSTLTLSKADYEKHKVYACEVTHQGLSSPVTKSFNRGEC", "ratio of amounts bound (altered form / CE115HA000)": 0.8}
{"binder": "CE115HA000 A56N one-arm antibody (antibody, human IgG1, kappa, L234A L235A, N297A, name in Kabat numbering) heavy: QVQLVESGGGVVQPGRSLRLSCAASGFTFSNAWMHWVRQAPGKGLEWVAQIKAKSNNYNTYYAESVKGRFTISRDDSKNSLYLQMNSLKTEDTAVYYCRYVHYGAYYGVDAWGQGTTVTVSSASTKGPSVFPLAPSSKSTSGGTAALGCLVKDYFPEPVTVSWNSGALTSGVHTFPAVLQSSGLYSLSSVVTVPSSSLGTQTYICNVNHKPSNTKVDKKVEPKSCDKTHTCPPCPAPEAAGGPSVFLFPPKPKDTLMISRTPEVTCVVVDVSHEDPEVKFNWYVDGVEVHNAKTKPREEQYASTYRVVSVLTVLHQDWLNGKEYKCKVSNKALPAPIEKTISKAKGQPREPQVYTLPPSRCELTKNQVSLSCAVKGFYPSDIAVEWESNGQPENNYKTTPPVLDSDGSFFLVSKLTVDKSRWQQGNVFSCSVMHEALHNHYTQKSLSLSPDYKDDDDK EPKSSDKTHTCPPCPAPELLGGPSVFLFPPKPKDTLMISRTPEVTCVVVDVSHEDPEVKFNWYVDGVEVHNAKTKPREEQYNSTYRVVSVLTVLHQDWLNGKEYKCKVSNKALPAPIEKTISKAKGQPREPQVCTLPPSRDELTKNQVSLWCLVKGFYPSDIAVEWESNGQPENNYKTTPPVLDSDGSFFLYSKLTVDKSRWQQGNVFSCSVMHEALHNRYTQKSLSLSP light: DIVMTQSPLSLPVTPGEPASISCRSSQSLVHSNRNTYLHWYQQKPGQAPRLLIYKVSNRFSGVPDRFSGSGSGTDFTLKISRVEAEDVGVYYCGQGTQVPYTFGQGTKLEIKRTVAAPSVFIFPPSDEQLKSGTASVVCLLNNFYPREAKVQWKVDNALQSGNSQESVTEQDSKDSTYSLSSTLTLSKADYEKHKVYACEVTHQGLSSPVTKSFNRGEC", "ratio of amounts bound (altered form / CE115HA000)": 0.87}
{"binder": "CE115HA000 A56Q one-arm antibody (antibody, human IgG1, kappa, L234A L235A, N297A, name in Kabat numbering) heavy: QVQLVESGGGVVQPGRSLRLSCAASGFTFSNAWMHWVRQAPGKGLEWVAQIKAKSNNYQTYYAESVKGRFTISRDDSKNSLYLQMNSLKTEDTAVYYCRYVHYGAYYGVDAWGQGTTVTVSSASTKGPSVFPLAPSSKSTSGGTAALGCLVKDYFPEPVTVSWNSGALTSGVHTFPAVLQSSGLYSLSSVVTVPSSSLGTQTYICNVNHKPSNTKVDKKVEPKSCDKTHTCPPCPAPEAAGGPSVFLFPPKPKDTLMISRTPEVTCVVVDVSHEDPEVKFNWYVDGVEVHNAKTKPREEQYASTYRVVSVLTVLHQDWLNGKEYKCKVSNKALPAPIEKTISKAKGQPREPQVYTLPPSRCELTKNQVSLSCAVKGFYPSDIAVEWESNGQPENNYKTTPPVLDSDGSFFLVSKLTVDKSRWQQGNVFSCSVMHEALHNHYTQKSLSLSPDYKDDDDK EPKSSDKTHTCPPCPAPELLGGPSVFLFPPKPKDTLMISRTPEVTCVVVDVSHEDPEVKFNWYVDGVEVHNAKTKPREEQYNSTYRVVSVLTVLHQDWLNGKEYKCKVSNKALPAPIEKTISKAKGQPREPQVCTLPPSRDELTKNQVSLWCLVKGFYPSDIAVEWESNGQPENNYKTTPPVLDSDGSFFLYSKLTVDKSRWQQGNVFSCSVMHEALHNRYTQKSLSLSP light: DIVMTQSPLSLPVTPGEPASISCRSSQSLVHSNRNTYLHWYQQKPGQAPRLLIYKVSNRFSGVPDRFSGSGSGTDFTLKISRVEAEDVGVYYCGQGTQVPYTFGQGTKLEIKRTVAAPSVFIFPPSDEQLKSGTASVVCLLNNFYPREAKVQWKVDNALQSGNSQESVTEQDSKDSTYSLSSTLTLSKADYEKHKVYACEVTHQGLSSPVTKSFNRGEC", "ratio of amounts bound (altered form / CE115HA000)": 0.76}
{"binder": "CE115HA000 A56K one-arm antibody (antibody, human IgG1, kappa, L234A L235A, N297A, name in Kabat numbering) heavy: QVQLVESGGGVVQPGRSLRLSCAASGFTFSNAWMHWVRQAPGKGLEWVAQIKAKSNNYKTYYAESVKGRFTISRDDSKNSLYLQMNSLKTEDTAVYYCRYVHYGAYYGVDAWGQGTTVTVSSASTKGPSVFPLAPSSKSTSGGTAALGCLVKDYFPEPVTVSWNSGALTSGVHTFPAVLQSSGLYSLSSVVTVPSSSLGTQTYICNVNHKPSNTKVDKKVEPKSCDKTHTCPPCPAPEAAGGPSVFLFPPKPKDTLMISRTPEVTCVVVDVSHEDPEVKFNWYVDGVEVHNAKTKPREEQYASTYRVVSVLTVLHQDWLNGKEYKCKVSNKALPAPIEKTISKAKGQPREPQVYTLPPSRCELTKNQVSLSCAVKGFYPSDIAVEWESNGQPENNYKTTPPVLDSDGSFFLVSKLTVDKSRWQQGNVFSCSVMHEALHNHYTQKSLSLSPDYKDDDDK EPKSSDKTHTCPPCPAPELLGGPSVFLFPPKPKDTLMISRTPEVTCVVVDVSHEDPEVKFNWYVDGVEVHNAKTKPREEQYNSTYRVVSVLTVLHQDWLNGKEYKCKVSNKALPAPIEKTISKAKGQPREPQVCTLPPSRDELTKNQVSLWCLVKGFYPSDIAVEWESNGQPENNYKTTPPVLDSDGSFFLYSKLTVDKSRWQQGNVFSCSVMHEALHNRYTQKSLSLSP light: DIVMTQSPLSLPVTPGEPASISCRSSQSLVHSNRNTYLHWYQQKPGQAPRLLIYKVSNRFSGVPDRFSGSGSGTDFTLKISRVEAEDVGVYYCGQGTQVPYTFGQGTKLEIKRTVAAPSVFIFPPSDEQLKSGTASVVCLLNNFYPREAKVQWKVDNALQSGNSQESVTEQDSKDSTYSLSSTLTLSKADYEKHKVYACEVTHQGLSSPVTKSFNRGEC", "ratio of amounts bound (altered form / CE115HA000)": 1.35}
{"binder": "CE115HA000 A56Y one-arm antibody (antibody, human IgG1, kappa, L234A L235A, N297A, name in Kabat numbering) heavy: QVQLVESGGGVVQPGRSLRLSCAASGFTFSNAWMHWVRQAPGKGLEWVAQIKAKSNNYYTYYAESVKGRFTISRDDSKNSLYLQMNSLKTEDTAVYYCRYVHYGAYYGVDAWGQGTTVTVSSASTKGPSVFPLAPSSKSTSGGTAALGCLVKDYFPEPVTVSWNSGALTSGVHTFPAVLQSSGLYSLSSVVTVPSSSLGTQTYICNVNHKPSNTKVDKKVEPKSCDKTHTCPPCPAPEAAGGPSVFLFPPKPKDTLMISRTPEVTCVVVDVSHEDPEVKFNWYVDGVEVHNAKTKPREEQYASTYRVVSVLTVLHQDWLNGKEYKCKVSNKALPAPIEKTISKAKGQPREPQVYTLPPSRCELTKNQVSLSCAVKGFYPSDIAVEWESNGQPENNYKTTPPVLDSDGSFFLVSKLTVDKSRWQQGNVFSCSVMHEALHNHYTQKSLSLSPDYKDDDDK EPKSSDKTHTCPPCPAPELLGGPSVFLFPPKPKDTLMISRTPEVTCVVVDVSHEDPEVKFNWYVDGVEVHNAKTKPREEQYNSTYRVVSVLTVLHQDWLNGKEYKCKVSNKALPAPIEKTISKAKGQPREPQVCTLPPSRDELTKNQVSLWCLVKGFYPSDIAVEWESNGQPENNYKTTPPVLDSDGSFFLYSKLTVDKSRWQQGNVFSCSVMHEALHNRYTQKSLSLSP light: DIVMTQSPLSLPVTPGEPASISCRSSQSLVHSNRNTYLHWYQQKPGQAPRLLIYKVSNRFSGVPDRFSGSGSGTDFTLKISRVEAEDVGVYYCGQGTQVPYTFGQGTKLEIKRTVAAPSVFIFPPSDEQLKSGTASVVCLLNNFYPREAKVQWKVDNALQSGNSQESVTEQDSKDSTYSLSSTLTLSKADYEKHKVYACEVTHQGLSSPVTKSFNRGEC", "ratio of amounts bound (altered form / CE115HA000)": 0.66}
